For this data set, the system named is Escherichia coli TOP10. Description: shrunken log2 fold change of peptide-encoding DNA abundance (4.5 h post-induction vs induction); higher = less antimicrobial activity (less host growth inhibition). To be noted: time post-induction: 4.5 h; library: site-saturation at positions 5, 18, 19, 20.
Consider RRIRYRPPRLPRPRPRPRVIPRP, for which the “shrunken log2 fold change” value is -0.0396.

In the case of RRIRHRPPRLPRPRPRPQNMPRP, the “shrunken log2 fold change” value was -0.731.

RRIRARPPRLPRPRPRPAPRPRP: the “shrunken log2 fold change” value was found to be 1.02.

For RRIRCRPPRLPRPRPRPAKRPRP, the “shrunken log2 fold change” value was 0.0702.

Take RRIRKRPPRLPRPRPRPGAKPRP: the “shrunken log2 fold change” value turned out to be 1.16.

In the case of RRIRLRPPRLPRPRPRPVGHPRP, the “shrunken log2 fold change” value stood at 0.306.

Turning to RRIRGRPPRLPRPRPRPFWVPRP, the “shrunken log2 fold change” value turned out to be 0.15.

Regarding RRIRPRPPRLPRPRPRPWHAPRP, the “shrunken log2 fold change” value was -0.0857.

Regarding RRIRRRPPRLPRPRPRPKQFPRP, the “shrunken log2 fold change” value was -0.00581.

As to RRIRDRPPRLPRPRPRPVNGPRP, the “shrunken log2 fold change” value was -0.0115.

Regarding RRIRCRPPRLPRPRPRPCDTPRP, the “shrunken log2 fold change” value was -0.0925.

On to RRIRLRPPRLPRPRPRPGYEPRP, for which the “shrunken log2 fold change” value was -0.11.

On to RRIRERPPRLPRPRPRPPWGPRP, for which the “shrunken log2 fold change” value was 0.285.

Turning to RRIRHRPPRLPRPRPRPAYMPRP, the “shrunken log2 fold change” value was found to be 0.0834.

For the sequence RRIRNRPPRLPRPRPRPFLVPRP, the “shrunken log2 fold change” value is -0.0697.

RRIRKRPPRLPRPRPRPFIWPRP: the “shrunken log2 fold change” value is -0.0554.

On to RRIRYRPPRLPRPRPRPYEYPRP, for which the “shrunken log2 fold change” value is -0.095.

Turning to RRIRNRPPRLPRPRPRPAPCPRP, the “shrunken log2 fold change” value was determined as 0.0656.

Turning to RRIRERPPRLPRPRPRPDMAPRP, the “shrunken log2 fold change” value was -0.00146.

As to RRIRKRPPRLPRPRPRPYMWPRP, the “shrunken log2 fold change” value is -0.0774.

As to RRIRARPPRLPRPRPRPQWEPRP, the “shrunken log2 fold change” value is 0.196.

With RRIRMRPPRLPRPRPRPNQIPRP, the “shrunken log2 fold change” value was 0.283.

Take RRIRQRPPRLPRPRPRPHYIPRP: the “shrunken log2 fold change” value is -0.298.

Consider RRIRYRPPRLPRPRPRPRKSPRP, for which the “shrunken log2 fold change” value was 0.117.

Consider RRIRVRPPRLPRPRPRPVMRPRP, for which the “shrunken log2 fold change” value came to 0.269.

RRIRARPPRLPRPRPRPSIRPRP: the “shrunken log2 fold change” value was -0.0712.

Regarding RRIRDRPPRLPRPRPRPHDQPRP, the “shrunken log2 fold change” value was -0.0965.

RRIRVRPPRLPRPRPRPFPGPRP: the “shrunken log2 fold change” value was found to be 0.03.

Consider RRIRVRPPRLPRPRPRPFFYPRP, for which the “shrunken log2 fold change” value stood at 0.0563.

With RRIRKRPPRLPRPRPRPTDQPRP, the “shrunken log2 fold change” value turned out to be 0.536.

On to RRIRKRPPRLPRPRPRPLEYPRP, for which the “shrunken log2 fold change” value was -0.123.

In the case of RRIRPRPPRLPRPRPRPCHVPRP, the “shrunken log2 fold change” value was -0.0695.

For the sequence RRIRSRPPRLPRPRPRPLEKPRP, the “shrunken log2 fold change” value was -0.0565.

Regarding RRIRKRPPRLPRPRPRPEVGPRP, the “shrunken log2 fold change” value came out at 1.29.

RRIRPRPPRLPRPRPRPKFGPRP: the “shrunken log2 fold change” value was -0.0973.

Take RRIRWRPPRLPRPRPRPTKMPRP: the “shrunken log2 fold change” value came out at 0.344.

With RRIRERPPRLPRPRPRPQQPPRP, the “shrunken log2 fold change” value turned out to be 0.166.

Consider RRIRDRPPRLPRPRPRPFFKPRP, for which the “shrunken log2 fold change” value is -0.127.

Take RRIRPRPPRLPRPRPRPNKSPRP: the “shrunken log2 fold change” value amounted to 0.408.

Consider RRIRVRPPRLPRPRPRPHWFPRP, for which the “shrunken log2 fold change” value was -0.11.

Turning to RRIRGRPPRLPRPRPRPRPQPRP, the “shrunken log2 fold change” value stood at 0.863.

For RRIRMRPPRLPRPRPRPKFHPRP, the “shrunken log2 fold change” value is -0.174.

RRIRKRPPRLPRPRPRPGHVPRP: the “shrunken log2 fold change” value is -0.165.

As to RRIRKRPPRLPRPRPRPHAAPRP, the “shrunken log2 fold change” value was -0.0457.

On to RRIRCRPPRLPRPRPRPHTFPRP, for which the “shrunken log2 fold change” value was -0.467.

RRIRGRPPRLPRPRPRPIMYPRP: the “shrunken log2 fold change” value was 0.0639.

Consider RRIRQRPPRLPRPRPRPGFVPRP, for which the “shrunken log2 fold change” value was found to be 0.217.

Regarding RRIRYRPPRLPRPRPRPNIGPRP, the “shrunken log2 fold change” value is -0.105.

With RRIRERPPRLPRPRPRPRSRPRP, the “shrunken log2 fold change” value was -0.195.

Consider RRIRARPPRLPRPRPRPCRWPRP, for which the “shrunken log2 fold change” value turned out to be 0.26.

On to RRIRWRPPRLPRPRPRPNCRPRP, for which the “shrunken log2 fold change” value worked out at 0.0177.

As to RRIRPRPPRLPRPRPRPRMGPRP, the “shrunken log2 fold change” value was 0.38.

Regarding RRIRMRPPRLPRPRPRPSATPRP, the “shrunken log2 fold change” value came to 3.21.

With RRIRYRPPRLPRPRPRPMYFPRP, the “shrunken log2 fold change” value was -0.48.

As for RRIRRRPPRLPRPRPRPAKAPRP, the “shrunken log2 fold change” value is 0.12.

As for RRIRKRPPRLPRPRPRPYCEPRP, the “shrunken log2 fold change” value is -0.102.

As for RRIRDRPPRLPRPRPRPFDVPRP, the “shrunken log2 fold change” value worked out at 0.016.

As for RRIRFRPPRLPRPRPRPTQVPRP, the “shrunken log2 fold change” value was -0.284.

For RRIRMRPPRLPRPRPRPFVWPRP, the “shrunken log2 fold change” value stood at 0.246.

As to RRIRARPPRLPRPRPRPQCIPRP, the “shrunken log2 fold change” value was -0.125.

Take RRIRSRPPRLPRPRPRPAWGPRP: the “shrunken log2 fold change” value came to 0.51.

For the sequence RRIRERPPRLPRPRPRPKFDPRP, the “shrunken log2 fold change” value is 0.154.

RRIRMRPPRLPRPRPRPHTQPRP: the “shrunken log2 fold change” value turned out to be 0.614.

On to RRIRWRPPRLPRPRPRPLQNPRP, for which the “shrunken log2 fold change” value is -0.11.

With RRIRCRPPRLPRPRPRPRCRPRP, the “shrunken log2 fold change” value was 0.285.

As to RRIRSRPPRLPRPRPRPAVVPRP, the “shrunken log2 fold change” value is -0.0261.

In the case of RRIRLRPPRLPRPRPRPNFVPRP, the “shrunken log2 fold change” value is -0.196.

For RRIRRRPPRLPRPRPRPRIDPRP, the “shrunken log2 fold change” value was -0.0185.

Consider RRIRKRPPRLPRPRPRPHVGPRP, for which the “shrunken log2 fold change” value worked out at 0.176.

On to RRIRARPPRLPRPRPRPQRGPRP, for which the “shrunken log2 fold change” value was determined as 0.468.

As for RRIRARPPRLPRPRPRPCQTPRP, the “shrunken log2 fold change” value is -0.0627.

Take RRIRARPPRLPRPRPRPLFLPRP: the “shrunken log2 fold change” value turned out to be 0.0297.

As for RRIRHRPPRLPRPRPRPEWIPRP, the “shrunken log2 fold change” value was -0.0632.

With RRIRMRPPRLPRPRPRPLNAPRP, the “shrunken log2 fold change” value was 0.35.

Consider RRIRVRPPRLPRPRPRPIIAPRP, for which the “shrunken log2 fold change” value was -0.195.

With RRIRIRPPRLPRPRPRPDHYPRP, the “shrunken log2 fold change” value is -0.38.

As for RRIRTRPPRLPRPRPRPGHHPRP, the “shrunken log2 fold change” value was -0.27.

For the sequence RRIRPRPPRLPRPRPRPYCQPRP, the “shrunken log2 fold change” value was -0.223.

As to RRIRKRPPRLPRPRPRPGYNPRP, the “shrunken log2 fold change” value came out at 0.178.

Regarding RRIRRRPPRLPRPRPRPGFTPRP, the “shrunken log2 fold change” value is 0.00987.

Consider RRIRSRPPRLPRPRPRPGKWPRP, for which the “shrunken log2 fold change” value is -0.147.

RRIRSRPPRLPRPRPRPCLYPRP: the “shrunken log2 fold change” value is -0.198.

RRIRARPPRLPRPRPRPIQAPRP: the “shrunken log2 fold change” value was -0.0205.

Take RRIRCRPPRLPRPRPRPSVNPRP: the “shrunken log2 fold change” value is -0.348.

Take RRIRARPPRLPRPRPRPPSNPRP: the “shrunken log2 fold change” value was 0.195.

Consider RRIRVRPPRLPRPRPRPGSHPRP, for which the “shrunken log2 fold change” value stood at 0.105.

Take RRIRPRPPRLPRPRPRPNHPPRP: the “shrunken log2 fold change” value is -0.404.

For RRIRMRPPRLPRPRPRPMHFPRP, the “shrunken log2 fold change” value is -0.0157.

For RRIRERPPRLPRPRPRPYKPPRP, the “shrunken log2 fold change” value is -0.116.

On to RRIRQRPPRLPRPRPRPKGWPRP, for which the “shrunken log2 fold change” value came to 0.502.

In the case of RRIRIRPPRLPRPRPRPKCAPRP, the “shrunken log2 fold change” value is 0.0106.

Turning to RRIRMRPPRLPRPRPRPMSNPRP, the “shrunken log2 fold change” value stood at 0.0851.

As to RRIRIRPPRLPRPRPRPCHVPRP, the “shrunken log2 fold change” value was -0.401.

RRIRGRPPRLPRPRPRPVDLPRP: the “shrunken log2 fold change” value came out at 0.687.

For RRIRQRPPRLPRPRPRPYKIPRP, the “shrunken log2 fold change” value is -0.568.

For RRIRKRPPRLPRPRPRPLINPRP, the “shrunken log2 fold change” value is -0.149.

Take RRIRGRPPRLPRPRPRPLPLPRP: the “shrunken log2 fold change” value was 0.627.

As to RRIRYRPPRLPRPRPRPNKMPRP, the “shrunken log2 fold change” value is -1.19.

On to RRIRQRPPRLPRPRPRPTPMPRP, for which the “shrunken log2 fold change” value was 2.6.

Turning to RRIRWRPPRLPRPRPRPYEHPRP, the “shrunken log2 fold change” value is -0.12.

With RRIRSRPPRLPRPRPRPQTCPRP, the “shrunken log2 fold change” value was -0.0978.

Regarding RRIRRRPPRLPRPRPRPNRTPRP, the “shrunken log2 fold change” value is -0.0707.

Take RRIRERPPRLPRPRPRPHSKPRP: the “shrunken log2 fold change” value was -0.313.

As for RRIRARPPRLPRPRPRPRGSPRP, the “shrunken log2 fold change” value came to 0.708.

Turning to RRIRVRPPRLPRPRPRPTQIPRP, the “shrunken log2 fold change” value amounted to 0.149.

Consider RRIRKRPPRLPRPRPRPQCTPRP, for which the “shrunken log2 fold change” value was -0.0504.

Turning to RRIRRRPPRLPRPRPRPVAWPRP, the “shrunken log2 fold change” value came to 0.341.

As to RRIRSRPPRLPRPRPRPAMQPRP, the “shrunken log2 fold change” value was -0.173.

As to RRIRERPPRLPRPRPRPGGSPRP, the “shrunken log2 fold change” value came to 0.154.

Take RRIRIRPPRLPRPRPRPTTWPRP: the “shrunken log2 fold change” value was -0.165.

RRIRMRPPRLPRPRPRPLGNPRP: the “shrunken log2 fold change” value is -0.0024.

In the case of RRIRRRPPRLPRPRPRPWVTPRP, the “shrunken log2 fold change” value was -0.0822.

On to RRIRIRPPRLPRPRPRPNPLPRP, for which the “shrunken log2 fold change” value was -0.0976.

As to RRIRWRPPRLPRPRPRPDTPPRP, the “shrunken log2 fold change” value was 0.126.

With RRIRPRPPRLPRPRPRPIAQPRP, the “shrunken log2 fold change” value was determined as 0.487.

RRIRHRPPRLPRPRPRPCCLPRP: the “shrunken log2 fold change” value is -0.82.

On to RRIRPRPPRLPRPRPRPQLHPRP, for which the “shrunken log2 fold change” value was -0.0604.

In the case of RRIRERPPRLPRPRPRPMHFPRP, the “shrunken log2 fold change” value was -0.163.

Consider RRIRHRPPRLPRPRPRPSDNPRP, for which the “shrunken log2 fold change” value was found to be 0.129.

On to RRIRARPPRLPRPRPRPMGSPRP, for which the “shrunken log2 fold change” value turned out to be 0.0355.

Regarding RRIRTRPPRLPRPRPRPHNNPRP, the “shrunken log2 fold change” value is -0.894.

RRIRRRPPRLPRPRPRPDLFPRP: the “shrunken log2 fold change” value is 0.41.

Regarding RRIRHRPPRLPRPRPRPHIYPRP, the “shrunken log2 fold change” value is -0.169.

Consider RRIRMRPPRLPRPRPRPGLDPRP, for which the “shrunken log2 fold change” value amounted to 2.44.

Regarding RRIRERPPRLPRPRPRPMISPRP, the “shrunken log2 fold change” value is -0.11.

For the origin of these results see the supplement of paper PMC9112550, “Optimization of the antimicrobial peptide Bac7 by deep mutational scanning” (BMC Biology, 2022).
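Note: peptides expressed intracellularly from a pBAD plasmid library in pooled LB shake-flask culture, induced with 0.3% L-arabinose, DNA abundance read by NGS, three biological replicates, DESeq2 with apeglm shrinkage.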
